In patent US20040063635A1:

Biological target: HSA/hEPO (83.5 Kd) (human)
Assay: double-antibody sandwich ELISA (R&D Systems EPO kit), against the recombinant human EPO standard

activity compared with the standard (of the activity of the EPO standard): 0.1
Substance: anti-EPO antibodies of the EPO ELISA kit from R&D Systems (tool reagent)
